Positions count from the first letter of the chain named.
B1: APE05552 (antibody, V domains shown)
VH: EVQLVQSGAEVKKPGESLKISCKGSGYSFTNSYWIGWVRQMPGKGLEWMGMIYPGDSDTRYSPSFQGQVTISSDKSISTAYLQWNSLKASDTAVYYCAKDLAPSAYYDYWGQGTLVTVSS
VL: EIVLTQSPGTLSLSPGERATLSCRASQSVRSSYLAYLAWYQQKPGQAPRLLIYDASSRATGIPDRFSGSGSGTDFTLTISRLEPEDFAVYYCQQYGRLPYTFGQGTRLEIKR
notes: from the stated CDR positions they appear to be variable regions; human IgG (captured with anti-human IgG Fc); also called APE05552.2
B2: APE05551 (antibody, V domains shown)
VH: B1 VH with D108N
VL: B1 VL
notes: from the stated CDR positions they appear to be variable regions; human IgG (captured with anti-human IgG Fc); also called APE05551.2
B3: APE05571 (antibody, V domains shown)
VH: B1 VH with N85A, A102T
VL: B1 VL
notes: from the stated CDR positions they appear to be variable regions; human IgG (captured with anti-human IgG Fc); also called APE05571.1

Assays:
[1] = target: cell surface DDR1 on T47D cells and 293/DDR1 cells (UniProt Q08345); assay: cell-based or functional assay
Sequence of cell surface DDR1 on T47D cells and 293/DDR1 cells (Q08345 19-913, stated change not applied): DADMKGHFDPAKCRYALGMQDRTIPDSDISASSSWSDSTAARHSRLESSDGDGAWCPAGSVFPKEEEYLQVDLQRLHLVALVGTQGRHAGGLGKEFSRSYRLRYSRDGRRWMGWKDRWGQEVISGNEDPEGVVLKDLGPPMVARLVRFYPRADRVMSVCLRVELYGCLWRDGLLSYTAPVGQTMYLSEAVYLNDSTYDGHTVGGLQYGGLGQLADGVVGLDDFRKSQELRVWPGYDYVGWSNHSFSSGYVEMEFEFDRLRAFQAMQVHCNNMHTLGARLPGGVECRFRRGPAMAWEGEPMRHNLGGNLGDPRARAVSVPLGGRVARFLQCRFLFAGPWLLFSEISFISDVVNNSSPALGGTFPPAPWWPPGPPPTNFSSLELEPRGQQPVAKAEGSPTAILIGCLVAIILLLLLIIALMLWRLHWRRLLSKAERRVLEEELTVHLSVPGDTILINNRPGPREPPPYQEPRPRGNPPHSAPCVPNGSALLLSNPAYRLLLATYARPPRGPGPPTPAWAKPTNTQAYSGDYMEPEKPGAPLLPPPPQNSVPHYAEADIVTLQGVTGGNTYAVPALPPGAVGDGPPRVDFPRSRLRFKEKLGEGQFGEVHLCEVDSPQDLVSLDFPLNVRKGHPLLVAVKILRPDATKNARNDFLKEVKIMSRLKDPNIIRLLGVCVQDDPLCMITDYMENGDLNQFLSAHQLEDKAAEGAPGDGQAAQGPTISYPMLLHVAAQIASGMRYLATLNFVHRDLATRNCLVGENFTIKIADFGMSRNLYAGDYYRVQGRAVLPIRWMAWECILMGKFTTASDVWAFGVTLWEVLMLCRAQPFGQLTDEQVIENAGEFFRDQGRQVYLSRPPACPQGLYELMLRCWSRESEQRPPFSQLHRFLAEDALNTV

[2] = target: T1, Monomeric soluble human DDR1-avi-his, APE1469.6 (hDDR1) (human, UniProt Q08345 21-416, limits assumed); assay: SPR (BIACORE T200), antibody captured on anti-human IgG Fc, monomeric DDR1-avi-his as analyte, 25 C, 1:1 fit
T1 construct: also called hDDR1-avi-his; huDDR1; not shown: avi tag and his tag
T1 sequence (Q08345 21-416 limits assumed): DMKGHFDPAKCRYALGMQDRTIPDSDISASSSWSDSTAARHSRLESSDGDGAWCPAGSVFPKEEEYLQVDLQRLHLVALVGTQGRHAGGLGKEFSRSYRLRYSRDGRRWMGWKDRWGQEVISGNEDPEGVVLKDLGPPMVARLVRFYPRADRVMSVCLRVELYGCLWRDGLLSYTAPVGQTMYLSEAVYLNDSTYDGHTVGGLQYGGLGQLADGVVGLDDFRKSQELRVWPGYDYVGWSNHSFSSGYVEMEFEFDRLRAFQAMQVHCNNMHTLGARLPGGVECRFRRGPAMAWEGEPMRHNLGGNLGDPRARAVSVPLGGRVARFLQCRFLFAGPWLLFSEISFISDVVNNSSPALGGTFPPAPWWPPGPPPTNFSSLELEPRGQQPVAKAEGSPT
Description: anti-Human IgG (Fc-specific, ≈10,000 RU) (GE Healthcare, Little Chalfont, Buckinghamshire, UK) was immobilized on a BIACORE™[…] chip using EDC-activated amine coupling chemistry. Antibodies (0.5 μg/mL, 50 second capture time at 10 μl/minute) were then captured using this surface to a target capture level of ˜125 RU. Monomeric soluble human DDR1-avi-his was then flowed over captured antibody (300 second association, 600 second dissociation) using a three-fold serial dilution series from 200 nM to 0.27 nM. Runs were performed at 25° C. and HBS-EP+, pH 7.6 buffer was used for all dilutions (Teknova, Hollister, Calif.). Captured antibody and antigen were removed between each cycle using two regeneration steps with 3M MgCl₂ (60 seconds contact time) to ensure a fresh binding surface for each concentration of antigen. The resulting sensorgrams were fit globally using a 1:1 binding model to calculate on- and off-rates (ka and kd, respectively) and dissociation constants as a measure of overall affinity (KD).

[3] = target: T1, Monomeric soluble human DDR1-avi-his, …; assay: ELISA on coated hDDR1-avi-his; antibody kept in normal mouse serum (day 0, 1, 4, 7 at 37 C; day 7 at 4 C) or PBS day 0; absorbance 450-540 nm
Description: The APE05570 and APE05571 antibodies described in Table 4 were tested for the ability to bind cell surface DDR in mouse serum. The antibodies were incubated in normal mouse serum for 1, 4, or 7 days at 37° C. Varying concentrations of the antibodies were then analyzed for ability to bind to DDR1 by an ELISA assay. Briefly, hDDR1-avi-his was coated on plates at 1 μg/m overnight at 4° C. and washed three times in phosphate buffered saline with Tween (PBST). Plates were then blocked with 3% BSA/PBS (200 μl/well) for one hour. The antibodies were then diluted, added to the washed plates, and incubated for two hours at room temperature. Bound antibodies were detected with goat anti HuIgG-(H+L chain)-horseradish peroxidase (HRP) at a dilution of 1:10,000. After washing the plates, 100 μl of 3,3′,5,5′-tetramethylbenzidine (TMB) substrate was added to detect antibody, and plates were read at 450 nm using a SpectraMax™ microplate reader (Molecular Devices, LLC., Sunnyvale, Calif.).

Row | P-DDR1 IC50 (nM); collagen I-stimulated T47D cells, Phospho-DDR1 ELISA [1] [nM] | Kd [2] [nM] | koff [2] [s⁻¹] | kon [2] [M⁻¹ s⁻¹] | EC50 (read off the curve) [3] [ng/mL] | Binder
1 | 27.6 | 43.8 | 0.0222 | 507000 | – | B1
2 | 26.1 | 51.4 | 0.0284 | 551000 | – | B2
3 | 19.3 | 47 | 0.0233 | 496000 | ~7 | B3

From patent publication US20170158762A1 (ANAPTYSBIO, published 2017)
